# Experimental data from US20030149244A1 (Genentech, published 2003).
# Legend:
# human IgE [1] = molecular target: T1, human IgE (human, UniProt P01854 1-546, FITC-, biotin- or 125I-labelled in some assays); assay: FACS, blocking of FITC-IgE binding to FcεRII (CD23) on IM9 cells
# [2] = molecular target: membrane IgE on U266B1 cells (human, UniProt P01854 1-546); assay: FACS on membrane IgE+ U266B1 cells
# human IgE [3] = molecular target: T1, human IgE; assay: soluble receptor ELISA, ratio of 50% inhibition concentrations
# human IgE [4] = molecular target: T1, human IgE; assay: as above; remark: listed apart in the source
# T1 sequence (P01854 whole entry): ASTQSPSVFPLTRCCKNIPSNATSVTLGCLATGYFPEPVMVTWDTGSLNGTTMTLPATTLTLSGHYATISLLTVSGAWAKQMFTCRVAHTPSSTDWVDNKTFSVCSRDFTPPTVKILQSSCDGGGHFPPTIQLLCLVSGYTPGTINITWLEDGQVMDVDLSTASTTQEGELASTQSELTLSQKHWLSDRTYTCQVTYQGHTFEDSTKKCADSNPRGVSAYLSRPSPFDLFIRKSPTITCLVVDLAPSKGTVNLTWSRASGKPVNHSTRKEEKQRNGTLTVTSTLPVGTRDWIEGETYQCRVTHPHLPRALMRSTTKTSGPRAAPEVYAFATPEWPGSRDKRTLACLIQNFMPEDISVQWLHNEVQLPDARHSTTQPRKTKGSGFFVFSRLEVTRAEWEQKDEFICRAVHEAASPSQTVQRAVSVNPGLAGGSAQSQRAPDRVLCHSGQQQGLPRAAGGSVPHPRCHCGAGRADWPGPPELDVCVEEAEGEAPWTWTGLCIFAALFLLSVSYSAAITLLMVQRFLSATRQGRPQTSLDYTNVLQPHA
# Chain of membrane IgE on U266B1 cells (P01854 whole entry, one chain of several): as the sequence (P01854 whole entry) above
EC50 (human IgE [1]),EC50 [2],ratio F(ab)-X / F(ab)-2 (human IgE [3]),ratio F(ab)-X / MaE11 (human IgE [3]),ratio Variant X / IgG1-2 (human IgE [4]),ratio Variant X / MaE11 (human IgE [4]),Binder
0.7 µg/mL,1 µg/mL,,,,,"MaE13 (antibody, V domains shown) VH: DVQLQESGPGLVKPSQSLSLTCTVTGYTITSDNAWNWIRQFPGNKLEWMGYINHSGTTSYNPSLKSRISITRDTSKNQFFLQLNSVTTEDTATYYCAWVVAYAMDYWGQGTSVTVSS VL: DIVMTQSQKFMSTSVGDRVSVTCKASQNVSSNVAWYQQKPGQSPKALIYSASYRYSGVPDRFTGSGSGTDFTLTISNVQSEDLAEYFCQQYYTYPLYTFGGGTKLEIK"
0.6 µg/mL,6 µg/mL,,,,,"MaE15 (antibody, V domains shown) VH: DVQHQESEPDLVKPSQSLSLTCTVTGYSITSGYNRHWIRQFPGNKLEWMGYIHYSGSTNYNPSLKRRISITRDTSKNQFFLQLNSVTTEDTATYYCARGSIYYYGSRYRYFDVWGAGTTVTVSS VL: DIQLTQSPASLAVSLGQRATISCKASQSVDYDGDSYMNWYQQKPGQPPKLLIYAASNLESGIPARFSGSGSGTDFTLNIHPVEEEDAATYYCQQSNEDPFTFGAGT"
,,0.03,1,0.06,1,"MaE11 (antibody, mouse IgG1, V domains shown, murine IgG1; also called murine MaE11; MeE11) VH: DVQLQESGPGLVKPSQSLSLACSVTGYSITSGYSWNWIRQFPGNKLEWMGSITYDGSSNYNPSLKNRISVTRDTSQNQFFLKLNSATAEDTATYYCARGSHYFGHWHFAVWGAGTTVTVSS VL: DIQLTQSPASLAVSLGQRATISCKASQSVDYDGDSYMNWYQQKPGQPPILLIYAASYLGSEIPARFSGSGSGTDFTLNIHPVEEEDAATFYCQQSHEDPYTFGAGTKLEIK"
